From patent publication US20230365700A1 (BIOSION, published 2023)
Like-named read-outs stand apart in the source and are kept apart here.

What was measured:
[1] = biological target: T1, full length human CD40 (uniprot #P25942-1, SEQ ID NO: 30) on 293T cells (human, UniProt P25942 21-277); test: flow cytometry (FACS) on 293T-CD40 cells expressing full length human CD40; MFI
Procedure: (§1) 2×10⁵ cells were incubated in each well of 96 well-plates in 100 μl anti-CD40 antibodies of the disclosure or controls of various concentrations (starting at 80 nM with a 4-fold serial dilution) in FACS buffer for 40 minutes on ice. […] Following an incubation of 40 minutes at 4° C. in dark, cells were washed three times and resuspended in FACS buffer. Fluorescence was measured using a Becton Dickinson FACS Canto II-HTS equipment and plotted against antibody concentration. Data was analyzed using Graphpad Prism software and EC₅₀ values were reported.

[2] = biological target: T2, human CD40-Fc protein (amino acid residue 21-193 of SEQ ID NO: 30 linked to N-terminus of amino acid residue … (human, biotin-labeled in the capture ELISA and the benchmark blocking ELISA; unlabeled when coated in the ligand blocking ELISA); test: competitive ELISA: antibody added to coated human CD40-Fc, then biotin-labeled human CD40L-his (95 ng/mL); blocked ligand: CD40L-his; OD(450-630)
T2 construct: also called biotin-labeled human CD40-Fc; human CD40-Fc-biotin
Procedure: (§2) The abilities of anti-CD40 antibodies to block CD40-CD40L binding were measured in a competitive ELISA assay. Briefly, 100 μl human CD40-Fc protein (amino acid residue 21-193 of SEQ ID NO: 30 linked to N-terminus of amino acid residue 99-330 of SEQ ID NO.:28) was coated on 96-well micro plates at 2 μg/mL in coating buffer (carbonate/bicarbonate buffer) and incubated overnight at 4° C. The next day, plates were washed once with wash buffer (PBS+0.05% v/v Tween-20, PBST), and blocked with 5% w/v non-fatty milk in PBST for 2 hours at 37° C. Plates were then washed 4 times using wash buffer.
Serially diluted anti-CD40 antibodies of the disclosure or controls (starting at 200 nM with a five-fold serial dilution) in PBST with 2.5% w/v non-fatty milk were added to the CD40-Fc bound plates, 100 μl per well, and incubated at 37° C. for 40 minutes. […] Finally, TMB was added and the reaction was stopped using 1M H2504, and the absorbance of each well was read on a microplate reader using dual wavelength mode with 450 nm for TMB and 630 nm as the reference wavelength, then the OD (450-630) values were plotted against antibody concentration. Data was analyzed using Graphpad Prism software and IC₅₀ values were reported.

[3] = biological target: T2, human CD40-Fc protein (amino acid …); test: as above; remark: listed apart in the source
Procedure: as §2
Serially diluted anti-CD40 antibodies of the disclosure or controls (starting at 200 nM with a five-fold serial dilution) in PBST with 2.5% w/v non-fatty milk were added to the CD40-Fc bound plates, 100 μl per well, and incubated at 37° C. for 40 minutes. Plates were washed 4 times again using wash buffer, and then added and incubated for 40 minutes at 37° C. with 100 μl/well 95 ng/mL biotin-labeled human CD40L-his protein (Sino biological Inc., Cat #10239-H08E). Plates were washed again using wash buffer. Thereafter, the plates were added with 100 μl/well of streptavidin conjugated HRP (1:10000 dilution in PBST buffer, Jackson Immunoresearch, Cat #016-030-084) and incubated for 40 minutes at 37° C. Plates were washed again using wash buffer. Finally, TMB was added and the reaction was stopped using 1M H2504, and the absorbance of each well was read on a microplate reader using dual wavelength mode with 450 nm for TMB and 630 nm as the reference wavelength, then the OD (450-630) values were plotted against antibody concentration. Data was analyzed using Graphpad Prism software and IC₅₀ values were reported.

[4] = biological target: T2, human CD40-Fc protein (amino acid …); test: capture ELISA: antibody captured on goat anti-mouse IgG F(ab')2-specific coat, detected with biotin-labeled human CD40-Fc (1.15 nM) and streptavidin-HRP; OD(450-630)
Procedure: (§3) Plates were washed once with wash buffer (PBS+0.05% v/v Tween-20, PBST) and then blocked with 200 μl/well blocking buffer (5% w/v non-fatty milk in PBST) for 2 hours at 37° C. Plates were washed 4 times and incubated with 100 μl/well serially diluted anti-CD40 antibodies of the disclosure, BM1, BM2 and negative control hIgG (human immunoglobulin (pH4) for intravenous injection, Hualan Biological Engineering Inc.) (5-fold serial dilution in 2.5% w/v non-fatty milk in PBST, starting at 66.7 nM) for 40 minutes at 37° C., and then washed 4 times again. […] After a final wash, plates were incubated with 100 μl/well ELISA substrate TMB (Innoreagents, Cat #TMB-S-002) at room temperature. The reaction was stopped in 3-10 minutes with 50 μl/well 1M H₂SO₄, and the absorbance of each well was read on a microplate reader using dual wavelength mode with 450 nm for TMB and 630 nm as the reference wavelength, then the OD (450-630) values were plotted against antibody concentration. Data was analyzed using Graphpad Prism software and EC₅₀ values were reported.

[5] = biological target: T2, human CD40-Fc protein (amino acid …); test: competitive ELISA: antibody pre-incubated with biotin-labeled human CD40-Fc (0.23 nM), mixture added to coated BM2; competitor: BM2; OD(450-630)
Procedure: (§4) The abilities of the anti-CD40 antibodies of the disclosure to block Benchmark-human CD40 binding was measured in a competitive ELISA assay. Briefly, the BM2 antibody was coated on 96-well micro plates at 1 μg/mL in PBS, 100 μl per well, and incubated overnight at 4° C. The next day, plates were washed once with wash buffer, and blocked with blocking buffer (5% w/v non-fatty milk in PBST) for 2 hours at 37° C. While blocking, the anti-CD40 antibodies of the disclosure or controls were diluted with biotin labeled human CD40-Fc protein (amino acid residue 21-193 of SEQ ID NO: 30 linked to N-terminus of amino acid residue 99-330 of SEQ ID NO.:28, 0.23 nM in 2.5% v/v non-fatty milk in PBST), starting at 66.7 nM with a 5-fold serial dilution, and incubated at room temperature for 40 minutes. After plate washing 4 times, the antibody/human CD40-Fc-biotin mixtures were added to BM2 coated plates, 100 μl/well. After incubation at 37° C. for 40 minutes, plates were washed 4 times again using wash buffer. […] Finally, TMB was added and the reaction was stopped using 1M H2504, and the absorbance was read on a microplate reader using dual wavelength mode with 450 nm for TMB and 630 nm as the reference wavelength, then the OD (450-630) values were plotted against antibody concentration. Data was analyzed using Graphpad Prism software and IC₅₀ values were reported.

[6] = biological target: T2, human CD40-Fc protein (amino acid …); test: capture ELISA: antibody captured on goat anti-mouse IgG F(ab')2-specific coat, detected with biotin-labeled human CD40-Fc (1.15 nM) and streptavidin-HRP; OD(450-630); remark: listed apart in the source
Procedure: as §3

[7] = biological target: T1, full length human CD40 (uniprot …); test: flow cytometry (FACS) on 293T-CD40 cells expressing full length human CD40; MFI; remark: listed apart in the source
Procedure: as §1

[8] = biological target: T2, human CD40-Fc protein (amino acid …); test: competitive ELISA: antibody pre-incubated with biotin-labeled human CD40-Fc (0.23 nM), mixture added to coated BM2; competitor: BM2 (self-competition); OD(450-630)
Procedure: as §4

[9] = biological target: T2, human CD40-Fc protein (amino acid …); test: as above; remark: listed apart in the source
Procedure: as §4

[10] = biological target: T2, human CD40-Fc protein (amino acid …); test: capture ELISA: antibody captured on goat anti-mouse IgG F(ab')2-specific coat, detected with biotin-labeled human CD40-Fc (1.15 nM) and streptavidin-HRP; OD(450-630); the curve reaches only OD about 0.9 at the highest concentration, no plateau
Procedure: as §3

[11] = biological target: T2, human CD40-Fc protein (amino acid …); test: competitive ELISA: antibody pre-incubated with biotin-labeled human CD40-Fc (0.23 nM), mixture added to coated BM2; competitor: BM2; OD(450-630); only partial: OD falls from about 1.13 to a plateau of about 0.92
Procedure: as §4

[12] = biological target: T2, human CD40-Fc protein (amino acid …); test: competitive ELISA: antibody pre-incubated with biotin-labeled human CD40-Fc (0.23 nM), mixture added to coated BM2; competitor: BM2; OD(450-630); only partial: OD falls from about 1.13 to a plateau of about 0.77
Procedure: as §4

B1: BM1 (Dacetuzumab) (antibody, human IgG1, kappa, V domains shown)
VH: EVQLVESGGGLVQPGGSLRLSCAASGYSFTGYYIHWVRQAPGKGLEWVARVIPNAGGTSYNQKFKGRFTLSVDNSKNTAYLQMNSLRAEDTAVYYCAREGIYWWGQGTLVTVSS
VL: DIQMTQSPSSLSASVGDRVTITCRSSQSLVHSNGNTFLHWYQQKPGKAPKLLIYTVSNRFSGVPSRFSGSGSGTDFTLTISSLQPEDFATYFCSQTTHVPWTFGQGTKVEIKR
notes: Benchmark antibody, made in house; also called CD40-BM1; benchmark
- EC50 [1]: 0.975 nM
- IC50 [2]: 6.95 nM
- IC50 [3]: 7.91 nM
- EC50 [4]: 0.236 nM
- IC50 [5]: 0.234 nM
- EC50 [6]: 0.248 nM
- EC50 [7]: 2.46 nM

B2: mouse anti-CD40 monoclonal antibody C1H1 (antibody, V domains shown)
VH: EVKLVESGGGLVKPGASLKLSCAASGFTFSNYGISWVRQTSDKRLEWVASISSGGDNTYYPDNVKGRFTISRENAKNTLYLQMSSLKSEDTALYYCARAGEKAMDYWGQGTSVTVSS
VL: DIVLTQSPVTLSVTPGDSVSLSCRASQTINNNLHWYQQKSHESPRLLIKYASQSISGIPSRFSGSGSGTDFTLSINSVETEDFGIYFCQQFSSWPLTFGAGTKLELK
notes: Hybridoma-derived mouse mAb purified on Protein A; also called mouse C1H1; Clone C1H1
- IC50 [3]: 7.83 nM
- EC50 [6]: 0.0774 nM
- EC50 [7]: 1.95 nM

B3: BM2 (Selicrelumab) (antibody, human IgG2, kappa, V domains shown)
VH: not shown
VL: DIQMTQSPSSVSASVGDRVTITCRASQGIYSWLAWYQQKPGKAPNLLIYTASTLQSGVPSRFSGSGSGTDFTLTISSLQPEDFATYYCQQANIFPLTFGGGTKVEIKR
notes: Benchmark antibody, made in house; also called CD40-BM2; benchmark
- EC50 [1]: 2.01 nM
- IC50 [2]: 9 nM
- IC50 [3]: 9.7 nM
- EC50 [4]: 0.637 nM
- EC50 [6]: 0.28 nM
- EC50 [7]: 3.26 nM
- IC50 [8]: 0.678 nM
- IC50 [9]: 0.804 nM

B4: mouse anti-CD40 monoclonal antibody 1D1 (antibody, V domains shown)
VH: EVQLQQSGPELVKPGASVKMSCKASGYTFTDYVMHWVKQKPGQGLECIGYINPYNDGTTYNEKFKGKATLTSDKSSNAAYLELSSLTSEDSAVYYCARGFLRESWFGYWGQGTLVTVSA
VL: DVLLTQTPLSLPVSLGDQASISCRSSQNIVHSNGNTYLDWYLQKPGQSPKLLIYKVSNRFSGVPDRFSGSGSGTDFTLKISRVEAEDLGVYYCFQGSHVPPTFGGGTKLELK
notes: Hybridoma-derived mouse mAb; also called Clone 1D1
- EC50 [1]: 1.79 nM
- EC50 [10]: 10.9 nM
- IC50 [11]: 4.84 nM

B5: mouse anti-CD40 monoclonal antibody 1A3 (antibody, V domains shown)
VH: EVQLQQSGPELVKTGASVKISCKASGYSFIGYYLHWVKQSLGKGLEWIGYISCHDGTIIYNQKFKGKATFTLDTSSSTAYMQFSSLTSEDSAVYFCARFLNYYGSNYAMDYWGQGTSVTVSS
VL: DIVMTQSHKFMSTSVGDRVSITCKASQDVGPAVAWYQQKPGQSPKLLIYWASTRHTGVPDRFTGSGYGTDFTLTINNVQSEDLADYFCQQYFTYPLTFGGGTKLEIK
notes: Hybridoma-derived mouse mAb; also called Clone 1A3
- EC50 [1]: 1.71 nM
- EC50 [4]: 0.0906 nM
- IC50 [12]: 0.18 nM
